Assay results reported in article PMC8666670 (2021).

Biological target: GlmU, glucosamine-1-phosphate N-acetyl transferase/N-acetyl-glucosamine-1-phosphate uridylyltransferase of E. … (E. coli, UniProt P0ACC7 1-456)
Assay: SPR

Sequence of GlmU, glucosamine-1-phosphate N-acetyl transferase/N-acetyl-glucosamine-1-phosphate uridylyltransferase of E. … (P0ACC7 whole entry): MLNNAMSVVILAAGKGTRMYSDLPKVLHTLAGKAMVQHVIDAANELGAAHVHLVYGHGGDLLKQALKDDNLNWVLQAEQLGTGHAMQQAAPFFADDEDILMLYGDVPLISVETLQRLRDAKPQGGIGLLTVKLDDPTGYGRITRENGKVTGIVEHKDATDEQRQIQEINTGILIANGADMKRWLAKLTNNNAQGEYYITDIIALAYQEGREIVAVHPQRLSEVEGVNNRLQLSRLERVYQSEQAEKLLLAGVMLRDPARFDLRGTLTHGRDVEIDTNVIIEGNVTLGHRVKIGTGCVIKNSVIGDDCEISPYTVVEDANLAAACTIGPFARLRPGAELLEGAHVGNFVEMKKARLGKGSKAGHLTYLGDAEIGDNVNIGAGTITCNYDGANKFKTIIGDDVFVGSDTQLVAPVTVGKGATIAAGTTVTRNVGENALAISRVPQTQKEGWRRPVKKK

B1: acetyl-acyl carrier protein (acetyl-ACP) (natural protein)
chain: MSTIEERVKKIIGEQLGVKQEEVTNNASFVEDLGADSLDTVELVMALEEEFDTEIPDEEAEKITTVQAAIDYINGHQA
modifications: prosthetic group with attached acetyl chain (acetyl thioester), made from apo-ACP and acetyl-CoA with [ACP]synthase
Q: B1 was tested. Which Kd did it give?
A: 82.5 µM
